# Measurements: PMC6542653
# Substitutions are numbered along the chain they refer to.
# T1: CytR DNA-binding domain wild type (UniProt P0ACN7 1-66)
# T1 sequence: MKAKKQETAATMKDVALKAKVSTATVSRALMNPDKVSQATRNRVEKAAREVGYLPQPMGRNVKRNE
# T2: CytR DNA-binding domain double mutant (DM) (UniProt P0ACN7 1-66, A29V;A48M)
# T2 sequence: T1 sequence with A29V, A48M
# B1: udp half-site (udpO) (dsDNA)
# DNA 1: ATTTATGCAACGCA
# DNA 2: TGCGTTGCATAAAT
# Columns and labels:
# [1] = target: T1, CytR DNA-binding domain wild type; test: fluorescence anisotropy
# [2] = target: T2, CytR DNA-binding domain double mutant …; test: fluorescence anisotropy
binder,measurement,setting,value
B1,binding result,[1],binds
same,binding result,[2],binds
